{"source": "paper PMC3795685", "target": "TAP-tagged wild-type Infected Cell Polypeptide 4 (ICP4) of HSV-1 strain KOS (herpes simplex virus type 1 (HSV-1), strain KOS) (UniProt P08392)", "sequence (P08392 whole entry)": "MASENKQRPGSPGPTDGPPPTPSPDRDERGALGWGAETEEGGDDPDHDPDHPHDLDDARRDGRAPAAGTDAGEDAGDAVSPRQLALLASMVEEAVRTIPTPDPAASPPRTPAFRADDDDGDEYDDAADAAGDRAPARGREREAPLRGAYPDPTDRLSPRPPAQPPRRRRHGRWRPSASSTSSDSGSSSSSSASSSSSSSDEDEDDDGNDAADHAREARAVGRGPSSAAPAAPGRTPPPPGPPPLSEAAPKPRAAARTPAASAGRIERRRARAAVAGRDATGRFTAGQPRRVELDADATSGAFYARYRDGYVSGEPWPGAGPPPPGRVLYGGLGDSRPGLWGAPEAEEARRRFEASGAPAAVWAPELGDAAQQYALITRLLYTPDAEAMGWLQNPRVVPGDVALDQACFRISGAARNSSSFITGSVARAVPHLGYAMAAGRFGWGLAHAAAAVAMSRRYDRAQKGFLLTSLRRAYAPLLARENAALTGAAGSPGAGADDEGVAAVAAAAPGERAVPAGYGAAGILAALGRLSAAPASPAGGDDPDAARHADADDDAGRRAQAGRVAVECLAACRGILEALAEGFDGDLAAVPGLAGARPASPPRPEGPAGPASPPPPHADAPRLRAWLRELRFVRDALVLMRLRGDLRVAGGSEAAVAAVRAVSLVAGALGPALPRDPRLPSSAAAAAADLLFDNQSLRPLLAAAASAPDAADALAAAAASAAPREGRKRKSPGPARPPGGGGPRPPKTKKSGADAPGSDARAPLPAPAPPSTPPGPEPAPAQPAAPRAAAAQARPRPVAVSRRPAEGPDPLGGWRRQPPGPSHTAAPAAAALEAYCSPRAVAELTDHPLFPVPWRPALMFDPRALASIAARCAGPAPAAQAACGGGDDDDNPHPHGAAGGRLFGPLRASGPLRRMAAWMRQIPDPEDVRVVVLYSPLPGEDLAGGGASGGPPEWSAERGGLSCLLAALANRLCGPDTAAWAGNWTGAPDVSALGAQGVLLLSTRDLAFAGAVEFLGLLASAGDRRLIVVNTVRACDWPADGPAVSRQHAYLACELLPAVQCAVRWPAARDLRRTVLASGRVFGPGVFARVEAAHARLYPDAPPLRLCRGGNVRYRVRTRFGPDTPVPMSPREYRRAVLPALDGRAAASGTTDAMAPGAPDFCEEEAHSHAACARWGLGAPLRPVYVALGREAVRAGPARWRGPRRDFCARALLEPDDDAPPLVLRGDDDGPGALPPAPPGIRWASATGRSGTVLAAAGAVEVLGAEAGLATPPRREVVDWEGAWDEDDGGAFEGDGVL", "test": "pull-down; streptavidin affinity purification of TAP-tagged ICP4 from nuclear extracts of infected Vero cells (3 or 6 hpi), independent samples; biotin eluates analysed by Western blot, in part quantified with a LI-COR Odyssey imager and normalised to ICP4; untagged virus as control"}
{"substance": "MED1 (natural protein)", "values": [{"measurement": "fold increase of the amount co-purified at 6 hpi against 3 hpi (normalised to ICP4)", "value": 3, "unit": "fold"}]}
